Broadly, the EC50 is the concentration that produces a half-maximal response.

*1 amine or outer side, *2 acyl side, *3 side chain or, on linkers, in order; H or OH if unused. Where no end group is shown, it is not given here. [ ]: non-standard residue; d: D form. βAsp = O=C(O)[C@H](CC(=O)[*:2])N[*:1]

Here are results for two molecules from patent US20110076234A1 (MOLMED, published 2011).

The test has as its target T1, Human αvβ3 integrin (purified) (human, UniProt P06756 31-1048; P05106 27-788).
T1 construct: Bought purified integrin, adsorbed on microtiter plates (0.5-2 µg/ml in DPBS with Ca2+ and Mg2+); also called avβ3; vitronectin receptor
As to the kind of experiment: competitive ELISA on αvβ3-coated plates with biotinylated NGR-TNF as labelled ligand (legend of FIG. 7). Background: In an ELISA, binding on a coated surface is turned into a signal by an enzyme label.

T1 sequence (P06756 31-1048, form in doubt, chain 1 of 2): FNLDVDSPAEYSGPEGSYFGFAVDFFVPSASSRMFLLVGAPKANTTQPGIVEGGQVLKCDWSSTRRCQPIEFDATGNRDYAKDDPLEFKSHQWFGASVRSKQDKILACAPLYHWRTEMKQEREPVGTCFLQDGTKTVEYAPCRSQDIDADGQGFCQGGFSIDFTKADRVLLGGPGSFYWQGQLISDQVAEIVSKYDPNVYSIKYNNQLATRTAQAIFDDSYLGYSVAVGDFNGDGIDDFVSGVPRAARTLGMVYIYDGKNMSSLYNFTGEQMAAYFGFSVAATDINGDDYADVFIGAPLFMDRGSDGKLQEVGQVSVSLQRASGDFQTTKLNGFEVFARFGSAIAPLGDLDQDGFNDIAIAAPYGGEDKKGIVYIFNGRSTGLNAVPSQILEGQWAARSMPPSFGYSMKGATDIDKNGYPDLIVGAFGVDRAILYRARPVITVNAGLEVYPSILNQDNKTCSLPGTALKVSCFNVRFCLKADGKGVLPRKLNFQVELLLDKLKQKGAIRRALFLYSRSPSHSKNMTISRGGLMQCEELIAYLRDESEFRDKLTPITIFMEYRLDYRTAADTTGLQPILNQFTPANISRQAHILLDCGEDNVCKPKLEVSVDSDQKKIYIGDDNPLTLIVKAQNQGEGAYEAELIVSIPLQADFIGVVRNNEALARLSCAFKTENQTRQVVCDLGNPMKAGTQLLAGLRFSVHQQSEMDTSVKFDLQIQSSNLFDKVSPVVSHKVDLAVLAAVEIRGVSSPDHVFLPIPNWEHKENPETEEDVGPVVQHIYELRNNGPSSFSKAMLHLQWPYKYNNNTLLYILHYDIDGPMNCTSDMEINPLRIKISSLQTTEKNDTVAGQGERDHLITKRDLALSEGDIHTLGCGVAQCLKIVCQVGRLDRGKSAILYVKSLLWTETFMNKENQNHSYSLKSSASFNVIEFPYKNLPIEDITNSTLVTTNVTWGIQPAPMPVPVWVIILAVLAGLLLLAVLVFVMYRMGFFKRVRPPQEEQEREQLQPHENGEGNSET
T1 sequence (P05106 27-788, form in doubt, chain 2 of 2): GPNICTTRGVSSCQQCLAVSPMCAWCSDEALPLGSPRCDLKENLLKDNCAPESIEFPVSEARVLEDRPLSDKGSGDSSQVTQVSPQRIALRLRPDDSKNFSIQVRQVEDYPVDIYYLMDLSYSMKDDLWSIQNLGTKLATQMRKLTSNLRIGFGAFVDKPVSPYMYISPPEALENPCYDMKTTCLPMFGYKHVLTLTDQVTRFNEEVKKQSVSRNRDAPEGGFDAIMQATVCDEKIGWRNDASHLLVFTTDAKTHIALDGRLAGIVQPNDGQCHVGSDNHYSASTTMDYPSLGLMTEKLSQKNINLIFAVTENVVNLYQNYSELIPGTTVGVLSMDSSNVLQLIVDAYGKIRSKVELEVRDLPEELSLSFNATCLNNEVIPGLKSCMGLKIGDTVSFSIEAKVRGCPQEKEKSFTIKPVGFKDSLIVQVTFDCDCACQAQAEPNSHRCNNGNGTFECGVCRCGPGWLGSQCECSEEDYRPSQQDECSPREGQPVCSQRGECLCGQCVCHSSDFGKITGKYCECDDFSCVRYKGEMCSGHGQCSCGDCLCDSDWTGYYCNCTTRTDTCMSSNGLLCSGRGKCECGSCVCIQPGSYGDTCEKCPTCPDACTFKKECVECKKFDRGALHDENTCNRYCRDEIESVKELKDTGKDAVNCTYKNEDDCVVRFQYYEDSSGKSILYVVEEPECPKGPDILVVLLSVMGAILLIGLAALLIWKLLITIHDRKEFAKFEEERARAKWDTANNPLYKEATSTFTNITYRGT

B1: isoDGR-pep (sequence of NGR-pep with L-isoD in place of N) (peptide)
peptide: C[βAsp]GRCGVRY
modifications: cysteine pairing not given here
In turn, B1 showed an EC50 of 100 nM.

B2: D-DGR-pep (sequence of NGR-pep with D-D in place of N) (peptide)
peptide: C[dD]GRCGVRY
modifications: cysteine pairing not given here
B2 yielded an EC50 of 100 nM.
